Data from patent EP0765166B1, “RADIOLABELED ANNEXIN-GALACTOSE CONJUGATES” (NEORX CORPORATION, priority 1994, dated 1995).

Settings: in vivo, iv
Protocol: • A. Animal Preparation - LA Vascular Thrombi. Fasting 25-30 kg Yorkshire swine were sedated with intramuscular Telazol (5-10 mg/kg) (commercially available from AVECO Co.) and commercially available Atropine (1 mg, Elkins-Sinn, Inc., Cherry Hill, NJ). Surital (200 mg) (commercially available from Abbott Laboratories) anaesthesia was administered intravenously. The animals were intubated and given inhalation anaesthesia of 1.5-2% halothane (commercially available from Abbott Laboratories) and O2 sufficient to obtain a deep level of anesthesia and physiologic arterial blood gases. Continuous electrocardiographic monitoring was instituted using alligator clip electrodes. A cut down in the neck region was conducted, and an 8 french catheter (USCI Co, Billerica, MA) was placed in the right common carotid artery for blood pressure and arterial blood gas monitoring as well as for blood sampling. The swine were placed in a right lateral decubitus position, and a lateral thoracotomy was performed to expose the heart. The incision was held open by a thoracotomy retractor. The pericardium was opened, and the left atrial appendage was isolated from the left atrium by a vascular cross- clamp. Rubber tipped forceps were used to gently crush the appendage. Five minutes later, ricinoleate (1 mg, ICN Pharmaceuticals, Costa Mesa, CA) and thrombin ([…], Johnson and Johnson Co., Arlington, Texas) were injected into the LAA (left atrial appendage) using a 27 Ga needle. The cross-clamp was removed 10 minutes later. One hour after the crush injury, Tc-99m-annexin V, prepared in accordance with Example I above, was administered as an intravenous bolus dose in an ear vein. The intravenous line was then flushed with saline. In 7 animals, I-125 labeled ovalbumin was administered as a non-specific control preparable, for example, by the procedure described by Fraker et al., Biochem. Biophys. Res. Commun. 80: 849-57, 1978). Briefly, I-125-radiolabeled ovalbumin was prepared by the Iodogen method, employing 600 µg ovalbumin (Sigma Chemical Co., St. Louis, Missouri) and NaI-125 (2mCi, 0.92 nmol). Image acquisition was performed as described below. At the end of the experimental procedure (generally about 150 minutes), the animals were sacrificed by an intravenous bolus dose of 80 mEq of KCl while the animals were still under general anaesthetic. A final blood sample was taken for well counting. The heart was rapidly excised, washed free of blood and dissected into samples for well counting. Additional samples of carotid artery, lung, liver, spleen, muscle and kidney were obtained in some animals. • B. Controls. Five different types of controls were used: open chest sham; closed chest sham; ovalbumin; indium platelets; and non-specific Tc-99m-labeled antibody. • 1. Open Chest Sham. […]

Tc-99m-annexin V: Annexin V radiolabeled with Tc-99m by using a diamide dimercaptide N2S2 chelate (Comparative Example I)
a: a = 0.0389 %ID/g | b: b = 0.0300 %ID/g | t1/2 a: t1/2 a = 9.6 min | t1/2 b: t1/2 b = 46 min
